The target in assay [1] is T1, human IL-2 receptor (IL-2Rα, IL-2Rβ, IL-2Rγ) (human, UniProt P01589 22-272; P14784 27-551; P31785 23-369).
T1 sequence (looked up) 1: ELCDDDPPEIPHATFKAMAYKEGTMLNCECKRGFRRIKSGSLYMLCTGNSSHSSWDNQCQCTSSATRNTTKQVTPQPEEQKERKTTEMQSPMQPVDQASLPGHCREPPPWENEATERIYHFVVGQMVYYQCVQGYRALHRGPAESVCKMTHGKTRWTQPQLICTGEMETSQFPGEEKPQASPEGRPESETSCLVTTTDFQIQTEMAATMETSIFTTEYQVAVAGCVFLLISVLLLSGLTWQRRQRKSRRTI
T1 sequence (looked up) 2: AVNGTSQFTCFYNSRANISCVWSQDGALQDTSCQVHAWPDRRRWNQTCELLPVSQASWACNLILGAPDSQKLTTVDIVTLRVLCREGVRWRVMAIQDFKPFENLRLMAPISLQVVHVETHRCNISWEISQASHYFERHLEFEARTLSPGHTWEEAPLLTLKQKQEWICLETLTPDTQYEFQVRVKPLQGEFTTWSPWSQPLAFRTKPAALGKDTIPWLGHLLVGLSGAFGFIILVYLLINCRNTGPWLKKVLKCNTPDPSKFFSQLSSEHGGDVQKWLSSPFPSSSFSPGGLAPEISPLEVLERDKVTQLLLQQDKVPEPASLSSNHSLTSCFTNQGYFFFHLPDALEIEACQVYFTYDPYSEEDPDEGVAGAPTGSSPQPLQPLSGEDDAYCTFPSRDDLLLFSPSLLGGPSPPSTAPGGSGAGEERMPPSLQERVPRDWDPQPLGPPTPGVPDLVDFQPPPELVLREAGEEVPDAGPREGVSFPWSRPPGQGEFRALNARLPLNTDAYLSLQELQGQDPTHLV
T1 sequence (looked up) 3: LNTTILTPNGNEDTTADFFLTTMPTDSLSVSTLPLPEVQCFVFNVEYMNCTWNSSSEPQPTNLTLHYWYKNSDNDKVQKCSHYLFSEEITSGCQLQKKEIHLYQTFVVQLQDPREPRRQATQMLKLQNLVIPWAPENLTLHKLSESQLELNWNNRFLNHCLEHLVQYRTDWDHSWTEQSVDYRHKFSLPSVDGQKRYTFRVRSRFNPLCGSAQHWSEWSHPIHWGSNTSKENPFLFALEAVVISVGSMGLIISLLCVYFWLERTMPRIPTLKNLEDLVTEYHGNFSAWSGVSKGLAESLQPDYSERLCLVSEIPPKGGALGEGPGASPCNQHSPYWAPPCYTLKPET
Kind of assay: cell-based or functional assay.

In assay [2] the target is T2, mouse PD-1 (mouse, UniProt Q02242 25-167, limits assumed).
T2 construct: also called mPD-1
T2 sequence (looked up): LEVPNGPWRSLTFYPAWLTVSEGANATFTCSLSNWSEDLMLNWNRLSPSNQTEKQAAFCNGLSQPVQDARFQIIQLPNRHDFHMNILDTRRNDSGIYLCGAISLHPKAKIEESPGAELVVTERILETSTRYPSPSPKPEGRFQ
Kind of assay: rounded restatement of Tables 14 and 15.

In assay [3] the target is T3, human PD-1 (human, UniProt Q15116 25-167, limits assumed).
T3 construct: also called hPD-1
Kind of assay: rounded restatement of Tables 14 and 15.

Assay [4] deals with T2, mouse PD-1. Kind of assay: same value as Table 15 (measured in PD-L2-Fc format).
Assay [5] has as its target T2, mouse PD-1. Kind of assay: PD-L2-Fc format, method not stated.
Assay [6] deals with T3, human PD-1. Kind of assay: PD-L2-Fc format, method not stated.

Results on 4 molecules are retold here after patent US20240392004A1 (IMMUNOWAKE, published 2024).

T3 sequence (Q15116 25-167 limits assumed): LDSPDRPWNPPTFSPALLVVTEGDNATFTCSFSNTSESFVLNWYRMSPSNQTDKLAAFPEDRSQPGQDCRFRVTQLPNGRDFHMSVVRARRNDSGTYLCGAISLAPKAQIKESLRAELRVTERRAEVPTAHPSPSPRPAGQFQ

B1: anti-PD-1 antibody nivolumab (Opdivo) (antibody, human IgG4 S228P, kappa, V domains shown)
VH: QVQLVESGGGVVQPGRSLRLDCKASGITFSNSGMHWVRQAPGKGLEWVAVIWYDGSKRYYADSVKGRFTISRDNSKNTLFLQMNSLRAEDTAVYYCATNDDYWGQGTLVTVSS
VL: EIVLTQSPATLSLSPGERATLSCRASQSVSSYLAWYQQKPGQAPRLLIYDASNRATGIPARFSGSGSGTDFTLTISSLEPEDFAVYYCQQSSNWPRTFGQGTKVEIKR
With B1, the “Percent IL-2 signal transduction (HEK-IL-2 reporter assay)” value in assay [1] is 0%.

B2: IL-12(E59A/F60A)/PD-L2(S58V)-Fc (IL-12 at hinge) (Fc fusion)
chain 1: LFTVTVPKELYIIEHGSNVTLECNFDTGSHVNLGAITAVLQKVENDTSPHRERATLLEEQLPLGKASFHIPQVQVRDEGQYQCIIIYGVAWDYKYLTLKVKASYRKINTHILKVPETDEVELTCQATGYPLAEVSWPNVSVPANTSHSRTPEGLYQVTSVLRLKPPPGRNFSCVFWNTHVRELTLASIDLQSQMEPRTHPTGGGGSGGGIWELKKDVYVVELDWYPDAPGEMVVLTCDTPEEDGITWTLDQSSEVLGSGKTLTIQVKAAGDAGQYTCHKGGEVLSHSLLLLHKKEDGIWSTDILKDQKEPKNKTFLRCEAKNYSGRFTCWWLTTISTDLTFSVKSSRGSSDPQGVTCGAATLSAERVRGDNKEYEYSVECQEDSACPAAEESLPIEVMVDAVHKLKYENYTSSFFIRDIIKPDPPKNLQLKPLKNSRQVEVSWEYPDTWSTPHSYFSLTFCVQVQGKSKREKKDRVFTDKTSATVICRKNASISVRAQDRYYSSSWSEWASVPCSGGGGSGGGSGGGGSRNLPVATPDPGMFPCLHHSQNLLRAVSNMLQKARQTLEFYPCTSEEIDHEDITKDKTSTVEACLPLELTKNESCLNSRETSFITNGSCLASRKTSFMMALCLSSIYEDLKMYQVEFKTMNAKLLMDPKRQIFLDQNMLAVIDELMQALNFNSETVPQKSSLEEPDFYKTKIKLCILLHAFRIRAVTIDRVMSYLNASGGGGSGGGDKTHTCPPCPAPEDEGGPSVFLFPPKPKDTLMISRTPEVTCVVVDVSHEDPEVKFNWYVDGVEVHNAKTKPREEQYNSTYRVVSVLTVLHQDWLNGKEYKCKVSNKALPAPIEKTISKAKGQPREPQVYVYPPSREEMTKNQVSLTCLVKGFYPSDIAVEWESNGQPENNYKTTPPVLDEDGSFALVSKLTVDKSRWQQGNVFSCSVMHEALHNHYTQKSLSLSPGK
chain 2: LFTVTVPKELYIIEHGSNVTLECNFDTGSHVNLGAITAVLQKVENDTSPHRERATLLEEQLPLGKASFHIPQVQVRDEGQYQCIIIYGVAWDYKYLTLKVKASYRKINTHILKVPETDEVELTCQATGYPLAEVSWPNVSVPANTSHSRTPEGLYQVTSVLRLKPPPGRNFSCVFWNTHVRELTLASIDLQSQMEPRTHPTGGGGSGGGDKTHTCPPCPAPEKKGGPSVFLFPPKPKDTLMISRTPEVTCVVVDVSHEDPEVKFNWYVDGVEVHNAKTKPREEQYNSTYRVVSVLTVLHQDWLNGKEYKCKVSNKALPAPIEKTISKAKGQPREPQVYVLPPSREEMTKNQVSLLCLVKGFYPSDIAVEWESNGQPENRYMTWPPVLDSDGSFFLYSKLTVDKSRWQQGNVFSCSVMHEALHNHYTQKSLSLSPGK
notes: also called IL-12(E59A/F60A)/PD-L2(mut2)-Fc
In the case of B2, the Kd (usually a measure of binding affinity in units of concentration) is ~100 nM with mouse PD-1 [2], ~100 nM with human PD-1 [3] and 230 nM in the assay with mouse PD-1 [4].

B3: IL-12(E59A/F60A)/PD-L2(WT)-Fc (Fc fusion)
chain 1: LFTVTVPKELYIIEHGSNVTLECNFDTGSHVNLGAITASLQKVENDTSPHRERATLLEEQLPLGKASFHIPQVQVRDEGQYQCIIIYGVAWDYKYLTLKVKASYRKINTHILKVPETDEVELTCQATGYPLAEVSWPNVSVPANTSHSRTPEGLYQVTSVLRLKPPPGRNFSCVFWNTHVRELTLASIDLQSQMEPRTHPTGSGIWELKKDVYVVELDWYPDAPGEMVVLTCDTPEEDGITWTLDQSSEVLGSGKTLTIQVKAAGDAGQYTCHKGGEVLSHSLLLLHKKEDGIWSTDILKDQKEPKNKTFLRCEAKNYSGRFTCWWLTTISTDLTFSVKSSRGSSDPQGVTCGAATLSAERVRGDNKEYEYSVECQEDSACPAAEESLPIEVMVDAVHKLKYENYTSSFFIRDIIKPDPPKNLQLKPLKNSRQVEVSWEYPDTWSTPHSYFSLTFCVQVQGKSKREKKDRVFTDKTSATVICRKNASISVRAQDRYYSSSWSEWASVPCSGGGGSGGGGSGGGGSGGGGSGRNLPVATPDPGMFPCLHHSQNLLRAVSNMLQKARQTLEFYPCTSEEIDHEDITKDKTSTVEACLPLELTKNESCLNSRETSFITNGSCLASRKTSFMMALCLSSIYEDLKMYQVEFKTMNAKLLMDPKRQIFLDQNMLAVIDELMQALNFNSETVPQKSSLEEPDFYKTKIKLCILLHAFRIRAVTIDRVMSYLNASDKTHTCPPCPAPEDEGGPSVFLFPPKPKDTLMISRTPEVTCVVVDVSHEDPEVKFNWYVDGVEVHNAKTKPREEQYNSTYRVVSVLTVLHQDWLNGKEYKCKVSNKALPAPIEKTISKAKGQPREPQVYVYPPSREEMTKNQVSLTCLVKGFYPSDIAVEWESNGQPENNYKTTPPVLDEDGSFALVSKLTVDKSRWQQGNVFSCSVMHEALHNHYTQKSLSLSPGK
chain 2: LFTVTVPKELYIIEHGSNVTLECNFDTGSHVNLGAITASLQKVENDTSPHRERATLLEEQLPLGKASFHIPQVQVRDEGQYQCIIIYGVAWDYKYLTLKVKASYRKINTHILKVPETDEVELTCQATGYPLAEVSWPNVSVPANTSHSRTPEGLYQVTSVLRLKPPPGRNFSCVFWNTHVRELTLASIDLQSQMEPRTHPTGSGDKTHTCPPCPAPEKKGGPSVFLFPPKPKDTLMISRTPEVTCVVVDVSHEDPEVKFNWYVDGVEVHNAKTKPREEQYNSTYRVVSVLTVLHQDWLNGKEYKCKVSNKALPAPIEKTISKAKGQPREPQVYVLPPSREEMTKNQVSLLCLVKGFYPSDIAVEWESNGQPENRYMTWPPVLDSDGSFFLYSKLTVDKSRWQQGNVFSCSVMHEALHNHYTQKSLSLSPGK
notes: also called IL-12(E59A/F60A)/PD-L2-Fc; construct #29
B3: the affinity with mouse PD-1 [4], expressed as Kd, was 980 nM.

B4: PD-L2(wt)-Fc (heterodimer) (Fc fusion)
chain 1: LFTVTVPKELYIIEHGSNVTLECNFDTGSHVNLGAITASLQKVENDTSPHRERATLLEEQLPLGKASFHIPQVQVRDEGQYQCIIIYGVAWDYKYLTLKVKASYRKINTHILKVPETDEVELTCQATGYPLAEVSWPNVSVPANTSHSRTPEGLYQVTSVLRLKPPPGRNFSCVFWNTHVRELTLASIDLQSQMEPRTHPTDKTHTCPPCPAPEDEGGPSVFLFPPKPKDTLMISRTPEVTCVVVDVSHEDPEVKFNWYVDGVEVHNAKTKPREEQYNSTYRVVSVLTVLHQDWLNGKEYKCKVSNKALPAPIEKTISKAKGQPREPQVYVYPPSREEMTKNQVSLTCLVKGFYPSDIAVEWESNGQPENNYKTTPPVLDEDGSFALVSKLTVDKSRWQQGNVFSCSVMHEALHNHYTQKSLSLSPGK
chain 2: LFTVTVPKELYIIEHGSNVTLECNFDTGSHVNLGAITASLQKVENDTSPHRERATLLEEQLPLGKASFHIPQVQVRDEGQYQCIIIYGVAWDYKYLTLKVKASYRKINTHILKVPETDEVELTCQATGYPLAEVSWPNVSVPANTSHSRTPEGLYQVTSVLRLKPPPGRNFSCVFWNTHVRELTLASIDLQSQMEPRTHPTDKTHTCPPCPAPEKKGGPSVFLFPPKPKDTLMISRTPEVTCVVVDVSHEDPEVKFNWYVDGVEVHNAKTKPREEQYNSTYRVVSVLTVLHQDWLNGKEYKCKVSNKALPAPIEKTISKAKGQPREPQVYVLPPSREEMTKNQVSLLCLVKGFYPSDIAVEWESNGQPENRYMTWPPVLDSDGSFFLYSKLTVDKSRWQQGNVFSCSVMHEALHNHYTQKSLSLSPGK
Turning to B4, the Kd with mouse PD-1 [5] is 980 nM; in the assay with human PD-1 [6], 1200 nM.
